Results taken from article PMC10547193.

Assays:
[1] = target: CVA10-WT viral particles (coxsackievirus A10 prototype strain Kowalik, mature virion) (coxsackievirus A10 (strain Kowalik))
[2] = target: CVA10 escape mutant N2142D+N3183Y (coxsackievirus A10 strain Kowalik with VP2 N142D and VP3 N183Y) (coxsackievirus A10 (strain Kowalik))
[3] = target: CVA10-N142A viral particles (coxsackievirus A10 strain Kowalik with VP2 N142A) (coxsackievirus A10 (strain Kowalik))

B1: human KRM1-Fc (ectodomain of human KREMEN1 fused to the Fc portion of human IgG1) (Fc fusion)
chain: APSPGLGPECFTANGADYRGTQNWTALQGGKPCLFWNETFQHPYNTLKYPNGEGGLGEHNYCRNPDGDVSPWCYVAEHEDGVYWKYCEIPACQMPGNLGCYKDHGNPPPLTGTSKTSNKLTIQTCISFCRSQRFKFAGMESGYACFCGNNPDYWKYGEAASTECNSVCFGDHTQPCGGDGRIILFDTLVGACGGNYSAMSSVVYSPDFPDTYATGRVCYWTIRVPGASHIHFSFPLFDIRDSADMVELLDGYTHRVLARFHGRSRPPLSFNVSLDFVILYFFSDRINQAQGFAVLYQAVKEELPQERPAVNQTVAEVITEQANLSVSAARSSKVLYVITTSPSHPPQTVPG
modifications: biotin (EZ-Link Sulfo-NHS-LC-LC-Biotin) in the ELISA
neutralization concentration (100% protection from CPE) of KRM1-Fc against CVA10 prototype strain Kowalik in RD cells [1]: 12.5 nM
change of the neutralization concentration of KRM1-Fc against the mutant relative to CVA10-WT (standard neutralization assay, RD cells) [2]: > 128 times
resistance to neutralization by KRM1-Fc relative to rescued CVA10-WT (neutralization assay, RD cells) [3]: 64 fold
